Earlier results as cited in patent US20220133873A1, “CANCER THERAPY” (Madison Vaccines Inc., priority 2019, published 2022).

Key:
[1] = intravenously or subcutaneously, doses 50 to 500 μg/m2/day
[2] = test system: advanced (metastatic) melanoma; settings: 173 patients, 2 mg/kg or 10 mg/kg at 3-week intervals

| Substance | tolerability [1] | drug-related grade 3 or 4 adverse event reported in more than one patient [2] | overall response rate ([2]; irrespective of dose) [%] |
| --- | --- | --- | --- |
| GM-CSF: Granulocyte-macrophage colony-stimulating factor, vaccine adjuvant | generally well tolerated |  |  |
| pembrolizumab |  | Grade 3 fatigue | 26 |
